# Measurements taken from the supplement of paper PMC9112550, “Optimization of the antimicrobial peptide Bac7 by deep mutational scanning” (BMC Biology, 2022).
# Tested on: Escherichia coli TOP10
# Test: shrunken log2 fold change of peptide-encoding DNA abundance (4.5 h post-induction vs induction); higher = less antimicrobial activity (less host growth inhibition)
# Conditions: time post-induction: 4.5 h; library: site-saturation at positions 5, 18, 19, 20
# 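Also: peptides expressed intracellularly from a pBAD plasmid library in pooled LB shake-flask culture, induced with 0.3% L-arabinose, DNA abundance read by NGS, three biological replicates, DESeq2 with apeglm shrinkage.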
row,Sequence,shrunken log2 fold change
1,RRIRPRPPRLPRPRPRPGAFPRP,0.293
2,RRIRDRPPRLPRPRPRPMYRPRP,-0.0107
3,RRIRQRPPRLPRPRPRPAWYPRP,-0.0125
4,RRIRNRPPRLPRPRPRPRIPPRP,0.157
5,RRIRRRPPRLPRPRPRPSFLPRP,-0.268
6,RRIRFRPPRLPRPRPRPQFTPRP,-0.362
7,RRIRKRPPRLPRPRPRPQGFPRP,-0.00783
8,RRIRNRPPRLPRPRPRPWKVPRP,-1.21
9,RRIRYRPPRLPRPRPRPMINPRP,-1.18
10,RRIRHRPPRLPRPRPRPQYNPRP,-0.655
11,RRIRKRPPRLPRPRPRPVCHPRP,0.199
12,RRIRCRPPRLPRPRPRPSNYPRP,-0.348
13,RRIRPRPPRLPRPRPRPIHYPRP,-0.967
14,RRIRVRPPRLPRPRPRPALHPRP,0.202
15,RRIRFRPPRLPRPRPRPWESPRP,-0.037
16,RRIRQRPPRLPRPRPRPHVAPRP,-0.0333
17,RRIRTRPPRLPRPRPRPTNCPRP,0.216
18,RRIRGRPPRLPRPRPRPKIHPRP,0.373
19,RRIRQRPPRLPRPRPRPQSSPRP,0.0994
20,RRIRNRPPRLPRPRPRPPVVPRP,0.000966
21,RRIRDRPPRLPRPRPRPIPMPRP,-0.00947
22,RRIRRRPPRLPRPRPRPTLFPRP,0.826
23,RRIRKRPPRLPRPRPRPASDPRP,0.981
24,RRIRQRPPRLPRPRPRPKHTPRP,-0.224
25,RRIRIRPPRLPRPRPRPWGFPRP,-0.185

row,Sequence,shrunken log2 fold change
1,RRIRRRPPRLPRPRPRPDMDPRP,-0.108
2,RRIRNRPPRLPRPRPRPPQWPRP,0.315
3,RRIRHRPPRLPRPRPRPVTNPRP,-0.222
4,RRIRARPPRLPRPRPRPMISPRP,0.501
5,RRIRLRPPRLPRPRPRPGPSPRP,0.25
6,RRIRYRPPRLPRPRPRPKIAPRP,-0.404
7,RRIRGRPPRLPRPRPRPYPNPRP,-0.529
8,RRIRGRPPRLPRPRPRPSKPPRP,0.218
9,RRIRLRPPRLPRPRPRPTGMPRP,0.056
10,RRIRPRPPRLPRPRPRPSIQPRP,-0.696
11,RRIRQRPPRLPRPRPRPVTKPRP,-0.0142
12,RRIRERPPRLPRPRPRPCSKPRP,0.2
13,RRIRDRPPRLPRPRPRPPDRPRP,0.468
14,RRIRMRPPRLPRPRPRPQTRPRP,1.05
15,RRIRHRPPRLPRPRPRPPCFPRP,-0.0882
16,RRIRTRPPRLPRPRPRPPDHPRP,0.112
17,RRIRHRPPRLPRPRPRPLSQPRP,-0.0443
18,RRIRIRPPRLPRPRPRPERDPRP,-0.175
19,RRIRLRPPRLPRPRPRPIWAPRP,0.136
20,RRIRDRPPRLPRPRPRPQPEPRP,0.106
21,RRIRNRPPRLPRPRPRPHEAPRP,-0.0663
22,RRIRSRPPRLPRPRPRPQFTPRP,-0.714
23,RRIRPRPPRLPRPRPRPMYSPRP,-0.386
24,RRIRYRPPRLPRPRPRPSGMPRP,-0.0611
25,RRIRPRPPRLPRPRPRPLKYPRP,-0.424

row,Sequence,shrunken log2 fold change
1,RRIRMRPPRLPRPRPRPQTWPRP,0.39
2,RRIRERPPRLPRPRPRPDYEPRP,-0.202
3,RRIRSRPPRLPRPRPRPLFCPRP,-0.146
4,RRIRWRPPRLPRPRPRPSSLPRP,0.449
5,RRIRVRPPRLPRPRPRPKSYPRP,-0.425
6,RRIRTRPPRLPRPRPRPKCGPRP,-0.0177
7,RRIRNRPPRLPRPRPRPVYGPRP,-0.0867
8,RRIRRRPPRLPRPRPRPMMFPRP,0.284
9,RRIRERPPRLPRPRPRPMFAPRP,0.0495
10,RRIRQRPPRLPRPRPRPYAIPRP,-0.436
11,RRIRIRPPRLPRPRPRPNMSPRP,-0.783
12,RRIRNRPPRLPRPRPRPVPFPRP,0.041
13,RRIRIRPPRLPRPRPRPHQLPRP,-0.52
14,RRIRCRPPRLPRPRPRPEFFPRP,-0.127
15,RRIRFRPPRLPRPRPRPFFYPRP,-0.308
16,RRIRDRPPRLPRPRPRPVCIPRP,0.0226
17,RRIRDRPPRLPRPRPRPRLTPRP,0.41
18,RRIRVRPPRLPRPRPRPMNKPRP,-0.403
19,RRIRPRPPRLPRPRPRPLHLPRP,-0.311
20,RRIRRRPPRLPRPRPRPCHCPRP,-0.0688
21,RRIRRRPPRLPRPRPRPASNPRP,0.472
22,RRIRARPPRLPRPRPRPYEVPRP,-0.0785
23,RRIRPRPPRLPRPRPRPNQRPRP,0.0736
24,RRIRGRPPRLPRPRPRPRYTPRP,0.178
25,RRIRDRPPRLPRPRPRPAGKPRP,0.0578

row,Sequence,shrunken log2 fold change
1,RRIRWRPPRLPRPRPRPKNPPRP,0.152
2,RRIRLRPPRLPRPRPRPELQPRP,0.328
3,RRIRGRPPRLPRPRPRPTYAPRP,0.436
4,RRIRHRPPRLPRPRPRPNGNPRP,-0.617
5,RRIRGRPPRLPRPRPRPWMMPRP,-0.0114
6,RRIRKRPPRLPRPRPRPRGSPRP,0.319
7,RRIRLRPPRLPRPRPRPSYAPRP,-0.134
8,RRIRPRPPRLPRPRPRPVLIPRP,-0.237
9,RRIRIRPPRLPRPRPRPMTMPRP,-0.01
10,RRIRIRPPRLPRPRPRPLHGPRP,-0.308
11,RRIRCRPPRLPRPRPRPIPNPRP,0.0105
12,RRIRMRPPRLPRPRPRPLNRPRP,0.0437
13,RRIRKRPPRLPRPRPRPPDQPRP,0.802
14,RRIRRRPPRLPRPRPRPWDDPRP,-0.0642
15,RRIRHRPPRLPRPRPRPQTIPRP,-0.793
16,RRIRIRPPRLPRPRPRPHRQPRP,-0.152
17,RRIRNRPPRLPRPRPRPSGAPRP,-0.0216
18,RRIRCRPPRLPRPRPRPPVPPRP,0.587
19,RRIRVRPPRLPRPRPRPKMPPRP,-0.0804
20,RRIRKRPPRLPRPRPRPKTLPRP,0.239
21,RRIRRRPPRLPRPRPRPWISPRP,-0.382
22,RRIRTRPPRLPRPRPRPTKVPRP,-0.134
23,RRIRGRPPRLPRPRPRPSRRPRP,0.647
24,RRIRTRPPRLPRPRPRPWNNPRP,-0.256
25,RRIRFRPPRLPRPRPRPKPAPRP,0.739

row,Sequence,shrunken log2 fold change
1,RRIRNRPPRLPRPRPRPSMVPRP,-0.508
2,RRIRNRPPRLPRPRPRPPVWPRP,0.476
3,RRIRCRPPRLPRPRPRPPFMPRP,0.114
4,RRIRYRPPRLPRPRPRPKFRPRP,-0.102
5,RRIRWRPPRLPRPRPRPPQYPRP,0.0672
6,RRIRCRPPRLPRPRPRPTAQPRP,0.301
7,RRIRTRPPRLPRPRPRPNDEPRP,-0.0966
8,RRIRCRPPRLPRPRPRPEQSPRP,0.67
9,RRIRKRPPRLPRPRPRPVEEPRP,0.695
10,RRIRIRPPRLPRPRPRPYAQPRP,-0.121
11,RRIRHRPPRLPRPRPRPCFLPRP,-0.0717
12,RRIRSRPPRLPRPRPRPIQAPRP,-0.0793
13,RRIRERPPRLPRPRPRPAIEPRP,-0.136
14,RRIRARPPRLPRPRPRPVIGPRP,0.535
15,RRIRARPPRLPRPRPRPGSSPRP,-0.112
16,RRIRQRPPRLPRPRPRPYVSPRP,-0.0823
17,RRIRGRPPRLPRPRPRPPRCPRP,0.951
18,RRIRRRPPRLPRPRPRPHFIPRP,-0.0325
19,RRIRARPPRLPRPRPRPSYSPRP,-0.349
20,RRIRFRPPRLPRPRPRPLCWPRP,0.135
21,RRIRYRPPRLPRPRPRPIYWPRP,-0.204
22,RRIRIRPPRLPRPRPRPGALPRP,-0.111
23,RRIRYRPPRLPRPRPRPHNLPRP,-0.131
24,RRIRWRPPRLPRPRPRPSKTPRP,0.0507
25,RRIRMRPPRLPRPRPRPYFDPRP,-1.09

row,Sequence,shrunken log2 fold change
1,RRIRKRPPRLPRPRPRPMRAPRP,1.23
2,RRIRSRPPRLPRPRPRPLIMPRP,-0.47
3,RRIRCRPPRLPRPRPRPAMDPRP,-0.207
4,RRIRWRPPRLPRPRPRPAYEPRP,-0.0308
5,RRIRVRPPRLPRPRPRPVSFPRP,-0.126
6,RRIRIRPPRLPRPRPRPQHGPRP,-0.184
7,RRIRGRPPRLPRPRPRPASPPRP,0.323
8,RRIRDRPPRLPRPRPRPTFEPRP,0.527
9,RRIRVRPPRLPRPRPRPQSCPRP,-0.342
10,RRIRRRPPRLPRPRPRPRHDPRP,0.0104
11,RRIRERPPRLPRPRPRPRKHPRP,0.0582
12,RRIRCRPPRLPRPRPRPTRCPRP,0.236
13,RRIRARPPRLPRPRPRPWVKPRP,0.0825
14,RRIRQRPPRLPRPRPRPLECPRP,-0.184
15,RRIRVRPPRLPRPRPRPWRPPRP,0.328
16,RRIRYRPPRLPRPRPRPTHGPRP,-0.1
17,RRIRQRPPRLPRPRPRPSLCPRP,-0.0894
18,RRIRTRPPRLPRPRPRPFCGPRP,-0.0697
19,RRIRYRPPRLPRPRPRPVGIPRP,0.177
20,RRIRIRPPRLPRPRPRPCEVPRP,0.0421
21,RRIRFRPPRLPRPRPRPISGPRP,0.00212
22,RRIRNRPPRLPRPRPRPMKTPRP,-0.0393
23,RRIRHRPPRLPRPRPRPGPCPRP,-0.254
24,RRIRKRPPRLPRPRPRPSPNPRP,1.52
25,RRIRRRPPRLPRPRPRPYVHPRP,-0.356
